Test results: PMC11287749, “Optical Aptamer-Based Cytokine Nanosensor Detects Macrophage Activation by Bacterial Toxins”

Biological target: IL-6 (human recombinant, Invitrogen) (Homo sapiens, UniProt P05231 30-212)
Assay: SWCNT NIR fluorescence; PBS, 5250 ng/mL IL-6, 3 h; p = 0.66; 0.5 mg/L SWCNT-ssDNA in 1x PBS (or 1x PBS + 10% FBS), 5250 ng/mL IL-6, 120 uL, up to 180 min; pH and temperature not stated in the material
Conditions: protein: commercial

IL-6 (human recombinant, Invitrogen), sequence (P05231 30-212): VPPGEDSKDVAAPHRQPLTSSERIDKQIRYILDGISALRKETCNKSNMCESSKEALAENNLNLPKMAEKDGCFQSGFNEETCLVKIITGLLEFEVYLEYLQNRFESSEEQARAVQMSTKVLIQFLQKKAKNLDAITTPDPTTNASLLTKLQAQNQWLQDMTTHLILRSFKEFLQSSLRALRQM

GTGTGTGTGTGTGTGTGTGTGTGTGTGTGT (ssDNA, noncovalently adsorbed on SWCNT) [(GT)15 control]
binding result: no binding
